According to paper PMC3751566:
Positions count from the first letter of the chain named.

B1: Protein-tyrosine phosphatase 1B wild type [not stated] / Munc18c (endogenous) [mouse (endogenous in 3T3-L1 and PTP1B KO adipocytes)] (parent)
chain 1: MEMEKEFEQIDKSGSWAAIYQDIRHEASDFPCRVAKLPKNKNRNRYRDVSPFDHSRIKLHQEDNDYINASLIKMEEAQRSYILTQGPLPNTCGHFWEMVWEQKSRGVVMLNRVMEKGSLKCAQYWPQKEEKEMIFEDTNLKLTLISEDIKSYYTVRQLELENLTTQETREILHFHYTTWPDFGVPESPASFLNFLFKVRESGSLSPEHGPVVVHCSAGIGRSGTFCLADTCLLLMDKRKDPSSVDIKKVLLEMRKFRMGLIQTADQLRFSYLAVIEGAKFIMGDSSVQDQWKELSHEDLEPPPEHIPPPPRPPKRILEPHNGKCREFFPNHQWVKEETQEDKDCPIKEEKGSPLNAAPYGIESMSQDTEVRSRVVGGSLRGAQAASPAKGEPSLPEKDEDHALSYWKPFLVNMCVATVLTAGAYLCYRFLFNSNT
chain 2: MAPPVSERGLKSVVWRKIKTAVFDDCRKEGEWKIMLLDEFTTKLLSSCCKMTDLLEEGITVIENIYKNREPVRQMKALYFISPTPKSVDCFLRDFGSKSEKKYKAAYIYFTDFCPDSLFNKIKASCSKSIRRCKEINISFIPQESQVYTLDVPDAFYYCYSPDPSNASRKEVVMEAMAEQIVTVCATLDENPGVRYKSKPLDNASKLAQLVEKKLEDYYKIDEKGLIKGKTQSQLLIIDRGFDPVSTVLHELTFQAMAYDLLPIENDTYKYKTDGKEKEAVLEEDDDLWVRVRHRHIAVVLEEIPKLMKEISSTKKATEGKTSLSALTQLMKKMPHFRKQISKQVVHLNLAEDCMNKFKLNIEKLCKTEQDLALGTDAEGQRVKDSMLVLLPVLLNKNHDNCDKIRAVLLYIFGINGTTEENLDRLIHNVKIEDDSDMIRNWSHLGVPIVPPSQQAKPLRKDRSAEETFQLSRWTPFIKDIMEDAIDNRLDSKEWPYCSRCPAVWNGSGAVSARQKPRTNYLELDRKNGSRLIIFVIGGITYSEMRCAYEVSQAHKSCEVIIGSTHILTPRKLLDDIKMLNKSKDKVSFKDE
B2: Munc18c (endogenous) [mouse (endogenous in 3T3-L1 and PTP1B KO adipocytes)] / Protein-tyrosine phosphatase 1B substrate-trapping [not stated] (parent)
chain 1: B1 chain 2
chain 2: B1 chain 1 with D181A

Variants of: B1
Experiment: co-immunoprecipitation (IP PTP1B with FG6, IB Munc18c), band quantification
Settings: with Munc18c (endogenous) [mouse (endogenous in 3T3-L1 and PTP1B KO adipocytes)]; 3T3-L1 WT adipocytes, + insulin + Vanadate; read off a plot

| response (relative to WT) | Variant |
| --- | --- |
| 0.83 | chain 1 D181A |

Same assay, conditions: with Munc18c (endogenous) [mouse (endogenous in 3T3-L1 and PTP1B KO adipocytes)]; 3T3-L1 WT adipocytes, + insulin, NP40 lysis; read off a plot

| response (relative to WT) | Variant |
| --- | --- |
| 2.2 | chain 1 D181A |

Same assay, conditions: with Munc18c (endogenous) [mouse (endogenous in 3T3-L1 and PTP1B KO adipocytes)]; 3T3-L1 WT adipocytes, - insulin, NP40 lysis; read off a plot

| response (relative to WT) | Variant |
| --- | --- |
| 1.4 | chain 1 D181A |

Variants of: B2
Experiment: as above
Settings: with Protein-tyrosine phosphatase 1B substrate-trapping mutant D181A; Munc18c knockdown 3T3-L1 cells reconstituted with Y218/219F, transfected with PTP1B D/A, + insulin; read off a plot

| response (relative to WT) | Variant |
| --- | --- |
| 0.87 | chain 1 MAPPVSERGLKSVVWRKIKTAVFDDCRKEGEWKIMLLDEFTTKLLSSCCKMTDLLEEGITVIENIYKNREPVRQMKALYFISPTPKSVDCFLRDFGSKSEKKYKAAYIYFTDFCPDSLFNKIKASCSKSIRRCKEINISFIPQESQVYTLDVPDAFYYCYSPDPSNASRKEVVMEAMAEQIVTVCATLDENPGVRYKSKPLDNASKLAQLVEKKLEDFFKIDEKGLIKGKTQSQLLIIDRGFDPVSTVLHELTFQAMAYDLLPIENDTYKYKTDGKEKEAVLEEDDDLWVRVRHRHIAVVLEEIPKLMKEISSTKKATEGKTSLSALTQLMKKMPHFRKQISKQVVHLNLAEDCMNKFKLNIEKLCKTEQDLALGTDAEGQRVKDSMLVLLPVLLNKNHDNCDKIRAVLLYIFGINGTTEENLDRLIHNVKIEDDSDMIRNWSHLGVPIVPPSQQAKPLRKDRSAEETFQLSRWTPFIKDIMEDAIDNRLDSKEWPYCSRCPAVWNGSGAVSARQKPRTNYLELDRKNGSRLIIFVIGGITYSEMRCAYEVSQAHKSCEVIIGSTHILTPRKLLDDIKMLNKSKDKVSFKDE [chain 1 Y218F Y219F] |

Same assay, conditions: with Protein-tyrosine phosphatase 1B substrate-trapping mutant D181A; Munc18c knockdown 3T3-L1 cells reconstituted with Y218/219F, transfected with PTP1B D/A, - insulin; read off a plot

| response (relative to WT) | Variant |
| --- | --- |
| 0.4 | chain 1 MAPPVSERGLKSVVWRKIKTAVFDDCRKEGEWKIMLLDEFTTKLLSSCCKMTDLLEEGITVIENIYKNREPVRQMKALYFISPTPKSVDCFLRDFGSKSEKKYKAAYIYFTDFCPDSLFNKIKASCSKSIRRCKEINISFIPQESQVYTLDVPDAFYYCYSPDPSNASRKEVVMEAMAEQIVTVCATLDENPGVRYKSKPLDNASKLAQLVEKKLEDFFKIDEKGLIKGKTQSQLLIIDRGFDPVSTVLHELTFQAMAYDLLPIENDTYKYKTDGKEKEAVLEEDDDLWVRVRHRHIAVVLEEIPKLMKEISSTKKATEGKTSLSALTQLMKKMPHFRKQISKQVVHLNLAEDCMNKFKLNIEKLCKTEQDLALGTDAEGQRVKDSMLVLLPVLLNKNHDNCDKIRAVLLYIFGINGTTEENLDRLIHNVKIEDDSDMIRNWSHLGVPIVPPSQQAKPLRKDRSAEETFQLSRWTPFIKDIMEDAIDNRLDSKEWPYCSRCPAVWNGSGAVSARQKPRTNYLELDRKNGSRLIIFVIGGITYSEMRCAYEVSQAHKSCEVIIGSTHILTPRKLLDDIKMLNKSKDKVSFKDE [chain 1 Y218F Y219F] |

Same assay, conditions: with Protein-tyrosine phosphatase 1B substrate-trapping mutant D181A; Munc18c knockdown 3T3-L1 cells reconstituted with Y521F, transfected with PTP1B D/A, + insulin; read off a plot

| response (relative to WT) | Variant |
| --- | --- |
| 0.93 | chain 1 MAPPVSERGLKSVVWRKIKTAVFDDCRKEGEWKIMLLDEFTTKLLSSCCKMTDLLEEGITVIENIYKNREPVRQMKALYFISPTPKSVDCFLRDFGSKSEKKYKAAYIYFTDFCPDSLFNKIKASCSKSIRRCKEINISFIPQESQVYTLDVPDAFYYCYSPDPSNASRKEVVMEAMAEQIVTVCATLDENPGVRYKSKPLDNASKLAQLVEKKLEDYYKIDEKGLIKGKTQSQLLIIDRGFDPVSTVLHELTFQAMAYDLLPIENDTYKYKTDGKEKEAVLEEDDDLWVRVRHRHIAVVLEEIPKLMKEISSTKKATEGKTSLSALTQLMKKMPHFRKQISKQVVHLNLAEDCMNKFKLNIEKLCKTEQDLALGTDAEGQRVKDSMLVLLPVLLNKNHDNCDKIRAVLLYIFGINGTTEENLDRLIHNVKIEDDSDMIRNWSHLGVPIVPPSQQAKPLRKDRSAEETFQLSRWTPFIKDIMEDAIDNRLDSKEWPYCSRCPAVWNGSGAVSARQKPRTNFLELDRKNGSRLIIFVIGGITYSEMRCAYEVSQAHKSCEVIIGSTHILTPRKLLDDIKMLNKSKDKVSFKDE [chain 1 Y521F] |

Same assay, conditions: with Protein-tyrosine phosphatase 1B substrate-trapping mutant D181A; Munc18c knockdown 3T3-L1 cells reconstituted with Y521F, transfected with PTP1B D/A, - insulin; read off a plot

| response (relative to WT) | Variant |
| --- | --- |
| 0.38 | chain 1 MAPPVSERGLKSVVWRKIKTAVFDDCRKEGEWKIMLLDEFTTKLLSSCCKMTDLLEEGITVIENIYKNREPVRQMKALYFISPTPKSVDCFLRDFGSKSEKKYKAAYIYFTDFCPDSLFNKIKASCSKSIRRCKEINISFIPQESQVYTLDVPDAFYYCYSPDPSNASRKEVVMEAMAEQIVTVCATLDENPGVRYKSKPLDNASKLAQLVEKKLEDYYKIDEKGLIKGKTQSQLLIIDRGFDPVSTVLHELTFQAMAYDLLPIENDTYKYKTDGKEKEAVLEEDDDLWVRVRHRHIAVVLEEIPKLMKEISSTKKATEGKTSLSALTQLMKKMPHFRKQISKQVVHLNLAEDCMNKFKLNIEKLCKTEQDLALGTDAEGQRVKDSMLVLLPVLLNKNHDNCDKIRAVLLYIFGINGTTEENLDRLIHNVKIEDDSDMIRNWSHLGVPIVPPSQQAKPLRKDRSAEETFQLSRWTPFIKDIMEDAIDNRLDSKEWPYCSRCPAVWNGSGAVSARQKPRTNFLELDRKNGSRLIIFVIGGITYSEMRCAYEVSQAHKSCEVIIGSTHILTPRKLLDDIKMLNKSKDKVSFKDE [chain 1 Y521F] |
